This passage reports Kd results from patent US20090220521A1 (published 2009).

The target in this experiment is recombinant human MIF (macrophage migration inhibitory factor) (human, UniProt P14174 2-115). In words: Biacore; Fab fragment. For orientation: Surface plasmon resonance follows binding to a sensor surface in real time, without labels.

Substitutions are numbered along the chain they refer to.

As usually defined, the Kd is a measure of binding affinity in units of concentration.

Chain of recombinant human MIF (macrophage migration inhibitory factor) (P14174 2-115): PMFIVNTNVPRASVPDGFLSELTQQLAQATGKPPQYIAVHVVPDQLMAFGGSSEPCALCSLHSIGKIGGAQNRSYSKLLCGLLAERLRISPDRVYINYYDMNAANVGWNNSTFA

B1: BaxA10 (antibody, V domains shown)
VH: EVQLLESGGGLVQPGGSLRLSCAASGFTFSWYAMDWVRQAPGKGLEWVSGIYPSGGRTKYADSVKGRFTISRDNSKNTLYLQMNSLRAEDTAVYYCARVNVIAVAGTGYYYYGMDVWGQGTTVTVSS
VL: DIQMTQSPGTLSLSPGERATLSCRASQGVSSSSLAWYQQKPGQAPRLLIYGTSSRATGIPDRFSGSASGTDFTLTISRLQPEDFAVYYCQQYGRSLTFGGGTKVEIK
Take B1: the Kd was 0.4 nM.

B2: Bax152 (antibody, V domains shown)
VH: B1 VH with W31I, Y52V, R57F
VL: B1 VL with G9V, G28S, S30R, S33Y, A44T, T52A, S54N, A67G, Q80E, R94N
As for B2, the Kd was determined as 16 nM.

B3: anti-MIF antibody Bax94 (antibody, V domains shown)
VH: B1 VH with W31I, Y52V, R57F
VL: B1 VL
In the case of B3, the Kd is 4 nM.

B4: Bax74 (antibody, V domains shown)
VH: EVQLLESGGGLVQPGGSLRLSCAASGFTFSKYYMIWVRQAPGKGLEWVSWIGPSGGFTFYADSVKGRFTISRDNSKNTLYLQMNSLRAEDTAVYYCARGTPDYGGNSLDHWGQGTLVTVSS
VL: DIQMTQSPSSLPASVGDRVTITCRASQSIGTYLSWYQHKPGNAPKLLIYATSRLQSGVPSRFSGGGSGTRFTLAISSLQPDDFATYFCQQTYSTPLTFGGGTKVDIK
Take B4: the dissociation constant Kd was 93 nM.

B5: Bax69 (antibody, V domains shown)
VH: EVQLLESGGGLVQPGGSLRLSCAASGFTFSIYSMNWVRQAPGKGLEWVSSIGSSGGTTYYADSVKGRFTISRDNSKNTLYLQMNSLRAEDTAVYYCAGSQWLYGMDVWGQGTTVTVSS
VL: DIQMTQSPSSLSASVGDRVTITCRSSQRIMTYLNWYQQKPGKAPKLLIFVASHSQSGVPSRFRGSGSETDFTLTISGLQPEDSATYYCQQSFWTPLTFGGGTKVEIK
As to B5, the equilibrium dissociation constant (Kd) came to 55 nM.
